Test results published in patent US20230079150A1, “METHODS FOR PREVENTION OR TREATMENT OF VIRUS-INDUCED ORGAN INJURY OR FAILURE WITH IL-22 DIMER” (priority 2020, published 2023).

Tested on: H1N1 influenza (A/PR8 strain)
Format: in vivo, C57BL/6 mice

B1: F-652: recombinant IL-22 dimer consisting of two monomeric subunits each comprising a sequence shown in SEQ ID NO: 24 (protein)
chain 1: APISSHCRLDKSNFQQPYITNRTFMLAKEASLADNNTDVRLIGEKLFHGVSMSERCYLMKQVLNFTLEEVLFPQSDRFQPYMQEVVPFLARLSNRLSTCHIEGDDLHIQRNVQKLKDTVKKLGESGEIKAIGELDLLFMSLRNACIGSGGGSGGGGSGGGGSVECPPCPAPPVAGPSVFLFPPKPKDTLMISRTPEVTCVVVDVSHEDPEVQFNWYVDGVEVHNAKTKPREEQFNSTFRVVSVLTVVHQDWLNGKEYKCKVSNKGLPASIEKTISKTKGQPREPQVYTLPPSREEMTKNQVSLTCLVKGFYPSDIAVEWESNGQPENNYKTTPPMLDSDGSFFLYSKLTVDKSRWQQGNVFSCSVMHEALHNHYTQKSLSLSPGK
chain 2: B1 chain 1
modifications: homodimer
In the case of B1, the “decreased small airway resistance at baseline (pattern differences)” value (6-week treatment groups) is reported as “not seen” and the “input impedance (Re Zrs): baseline resistance in small airways” value (aged mice, not young mice, prior to airway recruitment maneuver) is reported as “significantly improves baseline resistance”.
